These results are taken from patent US20180044393A1 (INSERM INSTITUT NATIONAL DE LA SANT ET DE LA RECHERCHE M …, published 2018).

The target of test [1] is T1, Orexin receptor-1 (human OX1R, wild type) stably expressed in CHO-S cells (human, UniProt O43613 1-425).
T1 sequence: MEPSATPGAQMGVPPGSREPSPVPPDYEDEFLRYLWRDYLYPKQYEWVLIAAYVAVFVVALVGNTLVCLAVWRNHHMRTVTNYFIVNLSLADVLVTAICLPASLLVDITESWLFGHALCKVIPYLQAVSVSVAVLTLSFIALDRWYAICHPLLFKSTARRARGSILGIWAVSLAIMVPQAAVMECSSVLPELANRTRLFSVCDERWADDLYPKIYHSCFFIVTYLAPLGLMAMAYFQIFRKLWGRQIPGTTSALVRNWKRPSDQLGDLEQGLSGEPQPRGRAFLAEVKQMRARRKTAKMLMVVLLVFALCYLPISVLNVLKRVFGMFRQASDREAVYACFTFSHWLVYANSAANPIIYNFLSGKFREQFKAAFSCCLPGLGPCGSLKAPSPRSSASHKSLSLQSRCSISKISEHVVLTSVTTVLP
Description: cell-based or functional assay.

The target of test [2] is T1, Orexin receptor-1 (human OX1R, wild …). Description: competitive inhibition of 125I-OxA binding on CHO-S cells expressing human OX1R. The protocol: CHO—S cells expressing recombinant native or mutated OX1R were grown as previously described (El Firar et al., 2009) and maintained at 37° C. in a humidified 5% CO₂/air incubator. ¹²⁵I-orexia-A (74 TBq/mmol) was prepared as previously described (El Firar et al., 2009). […] Free peptides were removed by 2 cell washing cycles with PBS. […] Data were analyzed using the GraphPad software (http://www.graphpad.com).

B1: OxB 7-28 (peptide)
peptide: LQGRLQRLLQASGNHAAGILTM
notes: synthetic deletion mutant of OxB; also called deletion of the first six residues of OxB
Usually IC50 stands for the point on the concentration scale where inhibition reaches its midpoint. A low value points to higher potency. As for B1, in test [1], the “Apoptosis induction EC50” value is 2180 nM and the “IP3 production EC50” value was determined as 1510 nM. In addition, the IC50 in test [2] was 388 nM.
